Reference: article PMC3639042 (Molecular Biology of the Cell, 2013)

T1: Hof1-4E–3HA (budding yeast, UniProt Q05080 1-669, S313E | S421E | S533E | S563E)
T1 sequence (looked up): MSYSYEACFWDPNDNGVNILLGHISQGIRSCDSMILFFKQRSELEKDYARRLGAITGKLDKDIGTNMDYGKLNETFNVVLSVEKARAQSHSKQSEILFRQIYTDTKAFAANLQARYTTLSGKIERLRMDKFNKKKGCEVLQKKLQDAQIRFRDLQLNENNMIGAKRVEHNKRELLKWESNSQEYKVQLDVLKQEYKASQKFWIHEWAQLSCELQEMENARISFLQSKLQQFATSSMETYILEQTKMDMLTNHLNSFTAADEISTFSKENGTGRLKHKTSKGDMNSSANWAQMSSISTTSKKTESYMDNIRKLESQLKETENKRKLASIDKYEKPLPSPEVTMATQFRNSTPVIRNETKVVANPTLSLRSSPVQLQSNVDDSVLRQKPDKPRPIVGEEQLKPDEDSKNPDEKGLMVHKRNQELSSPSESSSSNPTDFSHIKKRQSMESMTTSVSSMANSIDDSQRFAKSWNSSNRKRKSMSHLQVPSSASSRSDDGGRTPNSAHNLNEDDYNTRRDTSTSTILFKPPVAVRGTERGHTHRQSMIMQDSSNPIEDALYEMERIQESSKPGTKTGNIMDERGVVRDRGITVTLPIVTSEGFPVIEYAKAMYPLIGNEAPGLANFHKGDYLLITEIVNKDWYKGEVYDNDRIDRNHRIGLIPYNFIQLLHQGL


Tests used:
Hof1-4E–3HA = biological target: T1, Hof1-4E–3HA; test: co-IP
[1] = biological target: septin complex (6His-Cdc12-Cdc3-Cdc10-Cdc11) (budding yeast, UniProt P32468 1-407; P32457 1-520; P25342 1-322; P32458 1-415); test: pull-down
septin complex (6His-Cdc12-Cdc3-Cdc10-Cdc11), sequence (P32468 whole entry, chain 1 of 3): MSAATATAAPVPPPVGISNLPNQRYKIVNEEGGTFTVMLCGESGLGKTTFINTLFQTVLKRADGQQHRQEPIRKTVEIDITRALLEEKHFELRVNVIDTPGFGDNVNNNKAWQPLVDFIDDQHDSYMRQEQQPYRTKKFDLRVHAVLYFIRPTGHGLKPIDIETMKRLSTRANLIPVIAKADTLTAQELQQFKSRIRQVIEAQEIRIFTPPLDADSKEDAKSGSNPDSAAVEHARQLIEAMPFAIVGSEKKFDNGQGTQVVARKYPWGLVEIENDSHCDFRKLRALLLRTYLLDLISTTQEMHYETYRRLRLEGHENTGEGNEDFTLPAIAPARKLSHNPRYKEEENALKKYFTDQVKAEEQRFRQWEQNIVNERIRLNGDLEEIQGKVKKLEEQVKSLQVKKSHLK
septin complex (6His-Cdc12-Cdc3-Cdc10-Cdc11), sequence (P32457 whole entry, chain 2 of 3): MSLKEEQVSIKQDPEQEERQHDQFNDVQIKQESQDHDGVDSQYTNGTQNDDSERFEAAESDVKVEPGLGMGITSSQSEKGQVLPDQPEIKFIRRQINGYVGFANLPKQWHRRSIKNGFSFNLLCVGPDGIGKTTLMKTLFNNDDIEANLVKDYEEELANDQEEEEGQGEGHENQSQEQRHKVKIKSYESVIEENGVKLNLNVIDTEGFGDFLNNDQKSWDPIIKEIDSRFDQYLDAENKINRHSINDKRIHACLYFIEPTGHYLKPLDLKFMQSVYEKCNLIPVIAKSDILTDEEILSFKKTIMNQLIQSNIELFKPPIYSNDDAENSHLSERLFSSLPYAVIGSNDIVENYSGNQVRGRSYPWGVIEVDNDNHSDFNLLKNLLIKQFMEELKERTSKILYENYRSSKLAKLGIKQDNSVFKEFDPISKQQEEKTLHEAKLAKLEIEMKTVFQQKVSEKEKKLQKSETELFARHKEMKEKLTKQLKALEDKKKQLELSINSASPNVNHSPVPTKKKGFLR
septin complex (6His-Cdc12-Cdc3-Cdc10-Cdc11), sequence (P32458 whole entry, chain 4 of 3): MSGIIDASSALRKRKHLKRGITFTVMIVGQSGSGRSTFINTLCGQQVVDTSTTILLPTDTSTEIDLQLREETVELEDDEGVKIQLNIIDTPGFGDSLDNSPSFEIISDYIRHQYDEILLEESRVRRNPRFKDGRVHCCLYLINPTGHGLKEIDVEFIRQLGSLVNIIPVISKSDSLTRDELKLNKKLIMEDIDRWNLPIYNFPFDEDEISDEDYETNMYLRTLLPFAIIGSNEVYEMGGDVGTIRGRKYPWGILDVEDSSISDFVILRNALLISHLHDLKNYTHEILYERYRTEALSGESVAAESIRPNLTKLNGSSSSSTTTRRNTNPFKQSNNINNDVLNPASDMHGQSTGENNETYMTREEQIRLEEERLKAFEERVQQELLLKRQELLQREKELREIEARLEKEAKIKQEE

| Binder | fold less coimmunoprecipitated than with Hof1-3HA (Hof1-4E–3HA) [fold] | binding result [1] |
| --- | --- | --- |
| Cdc10-TAP (natural protein, budding yeast, UniProt P25342 1-322, looked up) MDPLSSVQPASYVGFDTITNQIEHRLLKKGFQFNIMVVGQSGLGKSTLINTLFASHLIDSATGDDISALPVTKTTEMKISTHTLVEDRVRLNINVIDTPGFGDFIDNSKAWEPIVKYIKEQHSQYLRKELTAQRERFITDTRVHAILYFLQPNGKELSRLDVEALKRLTEIANVIPVIGKSDTLTLDERTEFRELIQNEFEKYNFKIYPYDSEELTDEELELNRSVRSIIPFAVVGSENEIEINGETFRGRKTRWSAINVEDINQCDFVYLREFLIRTHLQDLIETTSYIHYEGFRARQLIALKENANSRSSAHMSSNAIQR | 2.5 | – |
| GST-HOF1-SID (aa 200–355) (domain or fragment, budding yeast, UniProt Q05080 200-355, looked up) KFWIHEWAQLSCELQEMENARISFLQSKLQQFATSSMETYILEQTKMDMLTNHLNSFTAADEISTFSKENGTGRLKHKTSKGDMNSSANWAQMSSISTTSKKTESYMDNIRKLSSQLKETENKRKLASIDKYEKPLPSPEVTMATQFRNSTPVIRN | – | binds |
